From US20080311122A1, “Antagonists of Hmgb1 and/or Rage and Methods of Use Thereof” (Medimmune, LLC, priority 2005, published 2008)

Columns and labels:
[1] = target: T1, recombinant HMG1 binding to RAGE-Fc (Homo sapiens, UniProt P09429); experiment: HMG1 binding to RAGE-Ig by ELISA; conditions: at the concentrations tested
T1 construct: made in house; host or cells: E. coli (HMG1)
T1 sequence (P09429 1-215): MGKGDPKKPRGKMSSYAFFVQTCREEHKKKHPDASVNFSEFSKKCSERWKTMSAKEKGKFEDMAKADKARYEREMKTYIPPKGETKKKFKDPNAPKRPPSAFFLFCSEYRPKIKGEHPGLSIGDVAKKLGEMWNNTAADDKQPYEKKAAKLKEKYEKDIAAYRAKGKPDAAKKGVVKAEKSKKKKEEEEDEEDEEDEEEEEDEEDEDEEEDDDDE
Procedure: HMG1 binding to RAGE-Ig by ELISA: 50 μl/well of RAGE-Fc fusion protein at 5 μg/ml in PBS was added to each well of an ELISA plate and incubated overnight at 4° C. The plate was then blocked with 200 μl of 5% milk at 37° C. for 1 hr and washed 3× with PBS/Tween. 50 μl/well of diluted HMGB1 solution. For dose curves, HMGB1 concentrations started at 4 ug/ml in PBS. For antibody blocking the HMGB1 was preincubated in another plate with human anti-HMG1 antibodies or buffer, then transferred to the RAGE-coated plate. The plates were then incubated at room temperature for 2 hours and washed 3×. To detect any HMG1 bound to the immobilized RAGE-Fc a mixture of biotinylated mouse anti-HMG1 mAbs (10D4, 4H11, 3E10 and 5C12) each at 1 ug/ml, total Ab: 4 ug/ml, were added to each well and the plate was incubated for 1 hour at room temperature. The plate was then washed and Strepavidin-HPR was added to each well and incubated 15 min. The plate was then washed 3× and blotted dry. 100 μl of TMB developing agent was added and the plate read at 650 nm. Values were calculated as percent of inhibition with HMG1 alone equal to 0% inhibition. The data in FIG. 9 and summarized in Table 1 represent the average of two separate experiments.

[2] = system: native activated HMG1 stimulated IL-6 release from human PBMCs; experiment: Inhibition of cytokine release from PBMCs, native activated HMG1; type: cell-based
Procedure: Inhibition of Cytokine Release: Human peripheral blood mononuclear cells (PBMCs) were isolated from the peripheral blood of healthy volunteers by a density gradient centrifugation. Freshly drawn heparinized whole blood was mixed with two volume of PBS. The diluted blood was gently layered on the surface of Histopaque-1077 (Sigma-Aldrich) and centrifuged at 400×g, at RT for 30 minute. PBMCs were collected from the interface between the plasma and the density gradient solution. After washing in PBS 3×, the purified PBMCs were resuspended in RPMI-1640 medium (GIBCO BRL) containing 100 U/ml penicillin, 100 μg/ml streptomycin and […] β-mercaptoethanol. 1×10^5 of cells was added in each well of 96-well cell culture plates.
The PBMCs were incubated for two hours at 37° C. with 5% CO2. recombinant HMG1, at 4 μg/ml, or native activated HMG1 from 2.4×10^5 LPS stimulated THP-1 cells, and different concentrations of human anti-HMGB-1 monoclonal antibodies, a RAGE-FC fusion protein or an HMG1 A-box-Fc fusion protein were added into each well. The culture media was supplemented with 8 U/ml (1 μg/ml) Polymyxin B sulphate (Sigma-Aldrich) to inhibit potential endotoxin. PBMCs from the same donor without stimulation with HMG1 were used as controls. The cell-free culture media were harvested after 14 hours and stored at −20° C.
The culture media were analyzed for inflammatory cytokines using Beadlyte human multi-cytokine flex kit from Upstate by Luminex 100 (Luminex Corp.). Proinflammatory cytokines TNF-α, IL-6, IL-1β and IL-12 (p40) were measured for cells stimulated with recombinant HMG1. In addition, TNF-α, IL-6, IL-1β and IL-8 were measured for cells stimulated with native activated HMG1.
Cytokine release data is presented as mean of triplicates±standard deviations. IC50 for anti-HMGB1 monoclonal antibody is defined as the concentration of antibody required yielding one-half maximal inhibition of the cytokine release from PBMCs stimulated by HMGB1. It was calculated by PRISM program.

[3] = target: T2, recombinant HMG1 (Homo sapiens, UniProt P09429); experiment: HMG1 binding affinity via BIAcore analysis
T2 construct: made in house; host or cells: E. coli
T2 sequence (P09429 1-215): T1 sequence (P09429 1-215)
Procedure: HMG1 Binding Affinity via BIAcore Analysis: All experiments were performed on a BIAcore 3000 instrument (BIAcore, Inc., Piscataway, N.J.). Briefly, each mAb was immobilized to a CM5 sensor chip using a standard amino coupling chemistry. Separately a reference (control) flow cell was also prepared. Two-fold, serial dilutions of HMG1 in instrument buffer were sequentially injected at a slow flow rate over the individual mAb and reference flow-cell surfaces. Following the binding and dissociation of HMG1, the mAbs surfaces were regenerated with a brief pulse of 1M NaCl-50 mM NaOH. At the end of each experiment, the binding curves were evaluated using a steady-state model available through the BIA evaluation software supplied by BIAcore, Inc. (Piscataway, N.J.).

B1: S17: human anti-HMG1 antibody; VL/VH aa SEQ ID NO: 70/72 (antibody, listed as Homo sapiens, V domains shown)
VH: EVQLLESGGGLVQPGGSLRLSCAASGFTFSYYDMHWVRQAPGKGLEWVSRISPSGGYTWYADSVKGRFTISRDNSKNTLYLQMNSLRAEDTAVYYCTRGRYTSGWHEYFDPWGQGTLVTVSS
VL: AQDIQMTQSPSSLSASVGDRVTITCRASQSIGTYLNWYQQKPGTAPKVLIYAASSLQSGVPSRFSGSGSGTDFTLTISSLQPEDFSTYYCQQSYNTPRTFGQGTKLEIK
block of recombinant HMG1 binding to RAGE [1]: do not at the concentrations tested | block of IL-6 release induced by native activated HMG1 [2]: able to block IL-6 released induced by native activated HMG1 | Kd [3]: 331 nM
